The record followed here is publication PMC8825603 (Theranostics, 2022).

Test in all cases: cellular equilibrium binding of GpL (luciferase)-tagged antibody variants; HEK293 cells transiently transfected with a CD40, 41BB or PD-L1 expression plasmid; increasing concentrations of GpL-tagged antibody variants (cell culture supernatants); 37 °C, 1.5 h; washed three times with ice cold PBS; binding to empty vector cells subtracted; one site specific binding fit
Common to all, as to settings: partners not purified

Assay [1] has as its target T1, PDL1 (UniProt Q9NZQ7).
T1 construct: PDL1, expressed on HEK293 cells from the expression plasmid pCMV6-XL4 (Origene Technologies); also called PD1 Ligand 1; PD1L; source: HEK293, transiently transfected with a PDL1 expression plasmid (pCMV6-XL4, Origene), on cells

In assay [2] the target is T1, PDL1. The source holds these as a separate data set.
A further assay has as its target T2, CD40 (Homo sapiens (species ), UniProt P25942).
T2 construct: CD40, expressed on HEK293 cells from an expression plasmid (gift of Pascal Schneider); also called cluster of differentiation 40; source: HEK293, transiently transfected with a CD40 expression plasmid, on cells

Another assay has as its target T3, 41BB (Homo sapiens (species ), UniProt Q07011).
T3 construct: 41BB, expressed on HEK293 cells from an expression plasmid (gift of Pascal Schneider); source: HEK293, transiently transfected with a 41BB expression plasmid, on cells

T1 sequence (Q9NZQ7 19-290): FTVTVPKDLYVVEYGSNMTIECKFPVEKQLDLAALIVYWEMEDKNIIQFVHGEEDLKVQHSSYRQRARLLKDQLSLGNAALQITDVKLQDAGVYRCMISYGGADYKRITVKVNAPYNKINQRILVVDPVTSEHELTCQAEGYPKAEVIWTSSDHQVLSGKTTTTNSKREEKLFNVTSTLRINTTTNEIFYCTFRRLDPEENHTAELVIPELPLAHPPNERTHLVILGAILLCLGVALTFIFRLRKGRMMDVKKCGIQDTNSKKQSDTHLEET
T2 sequence (P25942 21-277): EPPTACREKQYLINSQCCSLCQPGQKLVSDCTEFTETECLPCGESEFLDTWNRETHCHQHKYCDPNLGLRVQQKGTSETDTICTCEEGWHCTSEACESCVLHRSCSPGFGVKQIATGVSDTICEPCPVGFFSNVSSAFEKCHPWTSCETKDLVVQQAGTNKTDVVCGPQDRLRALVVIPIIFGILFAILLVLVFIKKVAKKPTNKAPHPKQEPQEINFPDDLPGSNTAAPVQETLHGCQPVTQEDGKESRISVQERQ
T3 sequence (Q07011 24-255): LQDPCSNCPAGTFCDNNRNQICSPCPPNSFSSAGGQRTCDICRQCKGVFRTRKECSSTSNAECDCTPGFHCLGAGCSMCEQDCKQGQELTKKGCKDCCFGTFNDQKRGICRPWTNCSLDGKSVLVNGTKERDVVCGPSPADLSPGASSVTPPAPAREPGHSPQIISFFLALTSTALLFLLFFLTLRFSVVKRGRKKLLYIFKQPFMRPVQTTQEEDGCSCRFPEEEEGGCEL

B1: αCD40-Fab2-GpL (Fab, V domains shown)
VH: QVQLVQSGAEVKKPGASVKVSCTASGFNIKDYYVHWVKQAPGQGLEWMGRIDPEDGDSKYAPKFQGKATMTADTSTSTVYMELSSLRSEDTAVYYCTTSYYVGTYGYWGQGTLVTVSS
VL: DIQMTQSPSSLSASVGDRVTITCSASSSVSYMLWFQQKPGKAPKLLIYSTSNLASGVPSRFSGSGSGTDFTLTISSLQPEDFATYYCQQRTFYPYTFGGGTKVEIK
notes: VH of the anti-CD40 antibody C; linker L6; CH1: constant heavy chain of human IgG1, aa 145-260 of GenBank AAA02914.1; numbers count on: GenBank AAA02914.1; VL of the anti-CD40 antibody C; linker L4; constant light chain, aa 105-214 of GenBank BAA97671.1; numbers count on: GenBank BAA97671.1; Bivalent Fab2 format; source: HEK293, transiently transfected (PEI), cell culture supernatant; copies: 2 + …
As for B1, the binding result with PDL1 [1] was “no binding”.

B2: αCD40-N297A-GpL (antibody, V domains shown)
VH: B1 VH
VL: B1 VL
notes: VH of the anti-CD40 antibody C; linker L6; constant heavy chain of human IgG1, aa 145-476 of GenBank AAA02914.1, with N297A (the footnote prints 'A to N mutation at position 327'); VL of the anti-CD40 antibody C; linker L4; constant light chain, aa 105-214 of GenBank BAA97671.1; numbers count on: GenBank BAA97671.1; IgG1(N297A); also called αCD40-IgG1(N297A); source: HEK293, transiently …
Regarding B2, the binding result with PDL1 [1] is recorded as “no binding”.

B3: α41BB-Fab2-GpL (Fab, V domains shown)
VH: QVQLQQSGAEVIKPGASVKLSCKASGYTFSSYWMHWVRQAPGQGLEWIGEINPGNGHTNYNEKFKSRATLTGDTSTSTVYMELSSLRSEDTAVYYCARSFTTARAFAYWGQGTLVTVSS
VL: DIVMTQSPAFLSVTPGEKVTITCRASQTISDYLHWYQQKPDQAPKLLIKYASQSISGIPSRFSGSGSGTDFTFTISSLEAEDAATYYCQDGHSFPPTFGQGTKLEIK
notes: VH of the anti-41BB antibody HBBK4; linker L6; CH1: constant heavy chain of human IgG1, aa 145-260 of GenBank AAA02914.1; numbers count on: GenBank AAA02914.1; VL of the anti-41BB antibody HBBK4; linker L4; constant light chain, aa 105-214 of GenBank BAA97671.1; numbers count on: GenBank BAA97671.1; Bivalent Fab2 format; source: HEK293, transiently transfected (PEI), cell culture supernatant; …
Take B3: in the assay with PDL1 [2], the binding result is “no binding”.

B4: α41BB-N297A-GpL (antibody, V domains shown)
VH: B3 VH
VL: B3 VL
notes: VH of the anti-41BB antibody HBBK4; linker L6; constant heavy chain of human IgG1, aa 145-476 of GenBank AAA02914.1, with N297A (the footnote prints 'A to N mutation at position 327'); VL of the anti-41BB antibody HBBK4; linker L4; constant light chain, aa 105-214 of GenBank BAA97671.1; numbers count on: GenBank BAA97671.1; IgG1(N297A); also called α41BB-IgG1(N297A); source: HEK293, transiently …
For B4, in the assay with PDL1 [2], the binding result is listed as “no binding”.

B5: αPDL1-N297A-GpL (antibody, V domains shown)
VH: EVQLLESGGGLVQPGGSLRLSCAASGFTFSSYIMMWVRQAPGKGLEWVSSIYPSGGITFYADTVKGRFTISRDNSKNTLYLQMNSLRAEDTAVYYCARIKLGTVTTVDYWGQGTLVTVSS
VL: QSALTQPASVSGSPGQSITISCTGTSSDVGGYNYVSWYQQHPGKAPKLMIYDVSNRPSGVSNRFSGSKSGNTASLTISGLQAEDEADYYCSSYTSSSTRVFGTGTKVTVL
notes: VH of the anti-PDL1 antibody Avelumab; linker L6; constant heavy chain of human IgG1, aa 145-476 of GenBank AAA02914.1, with N297A (the footnote prints 'A to N mutation at position 327'); VL of the anti-PDL1 antibody Avelumab; linker L4; constant light chain, aa 105-214 of GenBank BAA97671.1; numbers count on: GenBank BAA97671.1; IgG1(N297A); also called αPDL1-IgG1(N297A); parental anti-PDL1 …
Consider B5, for which the binding result with CD40 and with 41BB was “no binding” throughout.
